For 16 sequences, protein production results are on record in a protein production outcome set (Wang et al. 2014).

This data set can be described thus: label from the status in PepcDB records.
On to “MNARLGVSLKILSALCATLMLACVKGLNGAIPTGEVIFFRSFVALFPLLLWLKVQGNILQRIKTKNIFGHLIRGFSGTGGMYFNYLALVYISLADATAISYAAPLFTVLMAAILLKENVHFSRWLAVIVGFCGILIMLSAKLTISNGLFSSGFALDGTALGATFALLAAACAATSNIQIRFLNGVESPGAIVFYFSLMTTLIGLFTLVFGWKMPHGWQWLLLIGCGLFGGIAQILVTLSLRYADASLLAPFDYTTLVWSMVIGYLFLDNLPEYATLMGASVVALAGIFTIWCNRRQRKGHIVRSS”, for which the protein production result is listed as “failed”. With “MNAVLVAVAIMLLLSLLRVQVIVAIIVGALTGGLIGGLGISETINTFTTGLGNSAPIALSYAMLGGFAISLSKTGLPDAMIQTALKWIGNEQDTKKQVYSKILILFIILTMACFSQNVIPVHIAFIPILIPALLKVLNELRVDRRLVTCIITFGLITPYMWIPAGFGKIYHDVLQTNAAQSGLTFDVTLIPKAMTIPAIGMIIGLCVAVFITYRKPRTYETEQIHTTENEIVPYTKRSITFGLLSIIATLTVQLTTESMIFGALAGIIVLSVSGSLPLKEADAILTSGMRMMSFIGFVMIAAAGFGAVLRKTGHVESLVQTSAHIIGNNKPLAAFLMLVIGLLVTMGIGSSFSTIPILTTIFVPLCIQLGFSPMATIAIIGTAGALGDAGSPASDSTLGPTSGLNADGQHHHIWDTCVPTFLHYNIPLLIFGFIAAITL”, the protein production entry is “failed”.

On to “MNDAAVWVPVPAMFYWGWLVPLIFGTIFGWRYHRDKVRLGNGIWFSLFFYSFLTMLAITILGSNIHWLIIISGALFVLLILLIGLIFTLQAFLLLWNAWIMWRHESHTLANMLTLYLGLGILVLPFLGNLLSSHVPQPVSYFLTLFPNLVIFYLGFLFYNYLTMLTIYQFNWPRLRQDYIIVLGDGWAETQSKTTFQNMQFSKQLIAQGPAKNPRTIFVTNKYGRLQI”, for which the protein production result is “failed”. The same measure for “MNDDLSWMLDSALEIPGALHAVLISADGLLMARTQDFDKDDADRVAAAMSGVQSLSRTLAFFCEDPSQTWRQTLVEFDGGWVFLISAGEGAYLGVSASPEVDMADITFRMQQLVAQLGKRLTTPPRENLGARS”: “failed”; for “MNDDVEFRYADFLFKNNNYAEAIEVFNKLEAKKYNSPYIYNRRAVCYYELAKYDLAQKDIETYFSKVNATKAKSADFEYYGKILMKKGQDSLAIQQYQAAVDRDTTRLDMYGQIGSYFYNKGNFPLAIQYMSKQIRPTTTDPKVFYELGQAYYYNKEYVKADSSFVKVLELKPNIYIGYLWRARANAAQDPDTKQGLAKPYYEKLIEVCAPGGAKYKDELIEANEYIAYYYTINRDKVKADAAWKNILALDPTNKKAIDGLKMKLEHHHHHH”: “not failed”.

Regarding “MNDLTKGKPLKLIFWFTIPLLIGNIFQQFYSLSDTLIVGQTLGVKALAAVGSTGSVQFLIIGFAQGLTAGLSILTAQHFGARDFKAVRRSFAISIVVSLIVGIILTILSLIFVDHILLLMQTPTDIIADARTFLQIMLGGMLAPIAFNLLSNIIRALGDSRTPLWFLIISALINIGLELLFILVFKWGIAGASWATILAQTIATLMCVVYIIVKVPILHIGRRHFKLVWSEVKAHLNVGLPMAFQMSIIAIGTIVLQAALNSLGTNSVAATTAAQKIDQVATQPLMSFGVTMATFAAQNYGAHQYERIITGVKQTMWLSGSFSVAAGLIEIIWGKQLVGFFVGHQDMAVLNLSQTYFNVIGSTYILLSMLFIMRNTLQGLGRSAIPTLAGAAELFMRVFAALILVRIFDYAGACSSEPLAWLGSCAVLLPAYIKSVHDLRQQARMTNTVAEGAEPILNDSEKL”, the protein production entry is recorded as “failed”. The same measure for “MNDLVESLIYEVNNMQQNFENVKSQQQDHDFYQTVKPYTEHIDSILNEIKLHREFIIEVPYMNSRKFELLIANIEQLSVECHFKRTSRKLFIEKLKSVQYDLQNILDGVTKEGTDG”: “not failed”; for “MNDQVRLHYETWVYPRYPLAASVRRSDTYALSLDALYARFNGTLPPAAARRILLAGCGSFSPYPTAVANPGVPVTALDLSAANLRRARLHAWMHGRFGISFEQGDLMDPAAAQGEYGFIDSFGVIHHLADPLAGLRALERRLAPGGILRLMVYSRGARRVVESARRALRFAGVRDVARLKDLLRRSPPGSRLSHAVEASGEGGGDAGLADALLHPRARIFSIDELMAMVGETGLVPLRFAHSRALAEPGAEVVRLRGLEQAGEPVPNFVLYLGREPRGGCGLAPDALLMLNPALRHDVGVLRLAPLAVPPRLGLKNPVLGFADRRFLRRFSTPLPVSALTPTDRERVGPFLDALFVIPFR”: “failed”; for “MNDRVIQNSRQGERVLAALSYFSIFFAPIILPIFIWIFADRPTSNHAAKSLAYHIITYIGPILLILSIGFGGVLINNSSTITSVIMITVAIILFVITVWYTIKNIYRGVRVLISEHAYFHP”: “failed”. As for “MNEDLAVIVYTSGTTGNPKGVMITYENIKTNMEGVRAVDLVTETDVILAMLPYHHIMPLCFTLILPMYMGVPIVLLTEISSASLLKALQENRVTVILGVPRVWEMLDKAIMTKINQSSLAKFMFKMASKINSMSIRKMLFSKVHKQFGGNIRLMVSGGAKIDKNILEDFRTMGFCAIQGYGMTETAPIITFNVPGRERSDSAGLEHHHHHH”, the protein production entry was “failed”.

Regarding “MNEEQRKSTSIDILAERDKKTKDYSKYFEHVYQPPSLKEARKRGKEEVNYNDDFQIDEKYRNMGQGKTFLIKTYGCQMNAHDTEVMAGILGALGYTPTEDINHADVILINTCAIRENAENKVFSEIGNLKHLKKEKPETVIGVCGCMSQEESVVNKILKSYQNVDMIFGTHNIHRLPEILEEAYLSKAMVVEVWSKEGDVIENLPKVREGNIKAWVNIMYGCDKFCTYCIVPFTRGKERSRRPEDIIDEVRDLARQGYKEITLLGQNVNAYGKDIDGLAYGLGDLLEDISKIDIPRVRFTTSHPWDFTDRMIEVIANGGNIVPHVHLPVQSGNNAVLKIMGRKYTRESYLDLVNRIKTHIPNVALTTDIIVGYPNETDEQFEETLTLYDEVEFEHAYTYIYSQRDGTPAAKMNDNVPLDVKKDRLQQLNKKVACYSERAMQQYEGQTVQVLCEGVSKKDDTVLSGYTSKNKLVNFKAPKSMIGKIVNVYIDEAKQFSLNGTFISVNDKTVVTQLEHHHHHH”, the protein production entry is listed as “not failed”. The same measure for “MNEILHWKRNFFLLALGRFVSILGSSVQAVAIPLFVLDLTHSGSAVALMTVAYMVPRILFTPIAGIVGDRGDRKFLMVSMDFLRGFLICFLALLAFRNSITLPVLYVSQIAMAIMDNLFDIPTGAMFPDIVPQDFLMRANSIMGMVRIFPQILGPALGGVIYGFYGIAIVFLVNGVSFVLSAISEIFIVYSRKVEKKPAKFSQILEDLKEGFLFIWNHELIRTILIFALFLNLLISPLFMVVYPYTIREVMKFSAQEFGFLETSFTLGALLGNFLIASYLSKKNMWKAMKISIFLFELPIVFLGFLVMPDFSLNRLVLFSLFFITFLIMGFLNPIINVPLDTAFQKMTPSHIRARAFSFLILVANGVTPLGSVLYGYLVDRVPVHFLYYVVGALSFLVAVLLLVALRGKELPT”: “failed”. Take “MNEKIEQAIREMGFKNFTEVQSKTIPLMLQGKNVVVRAKTGSGKTAAYAIPILELGMKSLVVTPTRELTRQVASHIRDIGRYMDTKVAEVYGGMPYKAQINRVRNADIVVATPGRLLDLWSKGVIDLSSFEIVIIDEADLMFEMGFIDDIKIILAQTSNRKITGLFSATIPEEIRKVVKDFITNYEEIEACIGLANVEHKFVHVKDDWRSKVQALRENKDKGVIVFVRTRNRVAKLVRLFDNAIELRGDLPQSVRNRNIDAFREGEYDMLITTDVASRGLDIPLVEKVINFDAPQDLRTYIHRIGRTGRMGRKGEAITFILNEYWLEKEVKKVSQKA”: the protein production result was “not failed”. As for “MNEKIVREQRGGEDSPSSVSAKSATAAASASTASMTFASAALESHKTTTITTASSSPRTSGASASASSSSRSASAPASSSSQQEKQPMLNATDMRELREIKQLLWGDNVREDVFKRWSQGFEFSKVEPSALVQKQGGPCAVIAPVQAYLLKIIIMDLPGIKLSEISLDKSQNLLIQALCDILKNCRAPRYRIVHLLRRRGNATEAGSTKKRSPAGEEESALAGQAAGSSEEVEEAAEATPASVSKLSQALQLEHDMHQELSPDEFHERLHTLHFKNIAAVARYYMENYDQLAHTYGVLLFMYSVFLTKGLELVAADISDTSEPLIHSTYGYGGQSLINLMLTGRAVAHVWDNEQDVGGLKLRGICEQSDIGFITLMEEMRYCTVGSFFKNPRYPVWVMGSDTHLTVLFSNEKRLVSPETPSETGRRIFKSYDPEGNNFISTTMLREVLIALNLVSEPAYVALMQKRLDPENLGIILLNAFMDEFFPLESRSTPDTFELMHYNGIPGSNENNKVRYYCGTAILLEGDLKSVCTSNPMVTCLQTKWPNIEINWHDGHMPSLN”, the protein production entry is on record as “failed”.

As for “MNEKTINEQYAYIRTLLEEKRLKEALMQLESLLWQCPDWDLRTRLEQLQTSYKYMLEYMRQGANDPERWNVYRKLIADTWEIADRSRLLMLDNASSRYYHEVRRTPRPESLSAYTLKKLLHMLESFNDDLAVSGLLSDEKMDEVLKRHEETLKYMFLQTWTNSAWTPEEEEDAQSMLTSELLPVNDLCLFISAVTLSLMECFDLRKIMWLLDAYRHPDVNAGQRALVGVIFIFHIYKNRLSLYNDLVKRVDLMDEISPFKEDVARIYHQMLLCQETEKIDKKMREEIIPEMLKNVSSMRNMRFGFEENEDENDDKNPDWADAFEQSGLGDKLREMNELQLEGADVYMSTFAALKSYPFFREVQNWFYPFSKQQSDVIKQLKQEGNEKNTLLDLILQSGFFSNSDKYSLFFTIRQLPKAQQDMMLSQLGEQQVAELTEKSSAETMKKFNERPGTVSNQYLHDLYRFFKLSVRRHEFRDIFKEKLDLHHIPALSNVLYSEDILFPIADFYLKKERWNEAIEVYEEMETIGALQERGAEYYQKLGYALQKSKKYAEAIGAYLKADTLKPDNIWNNRHLAICYRLNRNYQAALSYYKKVEEATPEDTNVIFHIGSCLAELGQYEEAANYFFKLDFIESNCIKAWRGIGWCSFISRKYEQAMKYYEKIIEQKPLAIDYMNAGHVAWTMGDIQKAAALYGKSITANGNRERFLEMFRKDEEALLKQGIQEEDIPLMLDLL”, the protein production result was “failed”. The same measure for “MNEKTLHLDKKSAVVGGLNLSQTKIFGTPLPLFLFLLLTVLAAHFTDTLPSGLVGGFAFMFVIGAIFGEVGKRLPIFNKYIGGAPVMIFLVAAWFVHMGWLSDREIKTVTEVMDKSKFLDLFIAVLITGSILAVNRKLLIRSLAGYIPTILAAVAGAAVFGIAIGLVFGITPDRIMMLYVLPIMGGGNGAGAIPLSEIYESVTGGSKEQYYSVAIAILTIANIVAIVAAAVINIIGEKIPSLTGNGELVRSSKLDVSEEAKNLTVTHREIAIGLMLAACVYTFSYALSKEILPGFGSIQIHTFAYMVVIIAILNAAGLCSDEIKEGAKRLSNFFSKQMLWLLMVGVGIAYTDLAEIINALTFANVIIATVIVLGAIIGAALGGWAMGFYPVEASITAGLCMANRGGSGDLEVLAASNRMSLLSYAQISSRLGGGIVLVIASVVFGMFV”: “failed”.
